{"source": "paper PMC5430875", "molecular_target": "cynomolgus monkey FcRn (cynomolgus monkey) (UniProt Q8SPV9)", "sequence (Q8SPV9 24-365)": "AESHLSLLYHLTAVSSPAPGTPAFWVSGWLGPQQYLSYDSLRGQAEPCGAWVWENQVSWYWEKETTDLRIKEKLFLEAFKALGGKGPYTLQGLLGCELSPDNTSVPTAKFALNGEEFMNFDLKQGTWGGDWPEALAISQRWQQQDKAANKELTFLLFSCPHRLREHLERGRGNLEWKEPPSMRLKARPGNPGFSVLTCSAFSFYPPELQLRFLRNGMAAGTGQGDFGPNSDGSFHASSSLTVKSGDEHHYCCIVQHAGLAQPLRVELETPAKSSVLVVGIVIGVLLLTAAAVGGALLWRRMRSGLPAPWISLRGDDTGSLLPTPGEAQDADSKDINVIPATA", "assay": "SPR; Biacore T200, pH 6.0; antibody and FcRn; who was immobilised is not told (details in Supplementary Information)", "data": [{"substance": "trastuzumab (antibody)", "values": [{"measurement": "Kd", "result": 1.98, "unit": "µM"}]}]}
